Measured values from patent US20100322920 (published 2010).
Where “and” joins values, the source holds several entries; their conditions need not be identical. Equal entries are not always repeated.

Target: T1, human CD30 (TNFRSF8), recombinant (human, UniProt P28908)
T1 chain: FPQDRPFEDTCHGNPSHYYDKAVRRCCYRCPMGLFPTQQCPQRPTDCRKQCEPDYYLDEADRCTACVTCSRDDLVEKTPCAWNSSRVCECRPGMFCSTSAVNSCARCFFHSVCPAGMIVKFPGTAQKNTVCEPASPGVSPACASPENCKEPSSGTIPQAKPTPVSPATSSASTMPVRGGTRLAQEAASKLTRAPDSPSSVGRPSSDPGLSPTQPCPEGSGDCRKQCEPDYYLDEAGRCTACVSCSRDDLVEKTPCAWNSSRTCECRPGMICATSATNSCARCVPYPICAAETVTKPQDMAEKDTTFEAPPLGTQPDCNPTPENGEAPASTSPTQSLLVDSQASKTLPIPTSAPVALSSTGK
Assay: SPR

B1: HuMab 5F11 (antibody, V domains shown)
VH: QVQLQQWGAGLLKPSETLSLTCAVYGGSFSAYYWSWIRQPPGKGLEWIGDINHGGGTNYNPSLKSRVTISVDTSKNQFSLKLNSVTAADTAVYYCASLTAYWGQGSLVTVSS
VL: DIQMTQSPTSLSASVGDRVTITCRASQGISSWLTWYQQKPEKAPKSLIYAASSLQSGVPSRFSGSGSGTDFTLTISSLQPEDFATYYCQQYDSYPITFGQGTRLEIK
  Kd: 1.12 nM and 1.14 nM and 1.23 nM and 1.36 nM
